Results on 2 molecules are retold here after US20020137095A1 (RIKEN, published 2002).

The target in data set [1] is T1, full-length mouse Reelin protein (mouse, UniProt Q60841 27-3461).
T1 construct: whole, on cells; Secreted protein; Forms homophilic complexes of unstated size; also called native Reelin; full-length Reelin
Description: cell adhesion assay after allowing for about 20% background, CR-50 at 20 µg/ml.

For data set [2], the target named is T1, full-length mouse Reelin protein. The data set is described as follows: cell adhesion assay after allowing for about 20% background, CR-50 at 200 µg/ml.
The target is the same in data set [3]. The data set is described as follows: cell adhesion assay after allowing for about 20% background, CR-50 at 50 µg/ml.
Data set [4] concerns the molecule itself. The data set is described as follows: analytical gel filtration (Superdex-200), 0.15 M NaCl, pH 7.4, 40 µM sample. On the procedure:
A FPLC gel filtration chromatography system (Pharmacia) was used for chromatography. This system was controlled by a computer FPLC director program (Pharmacia). The sample was loaded onto a Superdex-200 gel filtration column (separation range: 10 kDa to 600 kDa, Pharmacia), which had been pre-equilibrated with a buffer containing 20 mM sodium phosphate, pH 7.4, 0.15 M NaCl, and 5 mM DTT, and then eluted at flow rate of 0.5 ml/min. The sample concentration was adjusted to 40 μM.

Data set [5] deals with T1, full-length mouse Reelin protein. Description: cell adhesion assay: Reelin-presenting cells on CR-50 epitope-coated dishes (200 or 50 µg/ml). How it is done: (A) Reelin-presenting cells on CR-50 epitope-coated dish (200 μg/ml). (B) Reelin-presenting cells on control-coated dish. (C) Histograms showing cell numbers in cell adhesion assay on CR-50 epitope-coated dishes (200 or 50 μg/ml) that are normalized to the control.
The former supernatant contained full-length Reelin molecules and the latter one contained no Reelin. After nitrocellulose/methanol treatment, Petri dishes were coated overnight with each supernatant. Petri dishes coated with the CR-50 epitope were prepared by overnight incubation with recombinant CR-50 epitope proteins produced from E. coli cells. […] After incubation for 2 hours, each plate was washed with panning buffer (PBS containing 10% v/v FCS) 7 to 10 times until no floating cells remained. To examine the effect of CR-50 antibody on cell adhesion, the antibody was added to the culture medium from the beginning of incubation. Then, the cells remaining on the dishes were observed by a microscope connected to a computer-controlled camera. This experiment was repeated five times, and for each dish, five microscopic fields were scored.

T1 sequence (Q60841 27-3461): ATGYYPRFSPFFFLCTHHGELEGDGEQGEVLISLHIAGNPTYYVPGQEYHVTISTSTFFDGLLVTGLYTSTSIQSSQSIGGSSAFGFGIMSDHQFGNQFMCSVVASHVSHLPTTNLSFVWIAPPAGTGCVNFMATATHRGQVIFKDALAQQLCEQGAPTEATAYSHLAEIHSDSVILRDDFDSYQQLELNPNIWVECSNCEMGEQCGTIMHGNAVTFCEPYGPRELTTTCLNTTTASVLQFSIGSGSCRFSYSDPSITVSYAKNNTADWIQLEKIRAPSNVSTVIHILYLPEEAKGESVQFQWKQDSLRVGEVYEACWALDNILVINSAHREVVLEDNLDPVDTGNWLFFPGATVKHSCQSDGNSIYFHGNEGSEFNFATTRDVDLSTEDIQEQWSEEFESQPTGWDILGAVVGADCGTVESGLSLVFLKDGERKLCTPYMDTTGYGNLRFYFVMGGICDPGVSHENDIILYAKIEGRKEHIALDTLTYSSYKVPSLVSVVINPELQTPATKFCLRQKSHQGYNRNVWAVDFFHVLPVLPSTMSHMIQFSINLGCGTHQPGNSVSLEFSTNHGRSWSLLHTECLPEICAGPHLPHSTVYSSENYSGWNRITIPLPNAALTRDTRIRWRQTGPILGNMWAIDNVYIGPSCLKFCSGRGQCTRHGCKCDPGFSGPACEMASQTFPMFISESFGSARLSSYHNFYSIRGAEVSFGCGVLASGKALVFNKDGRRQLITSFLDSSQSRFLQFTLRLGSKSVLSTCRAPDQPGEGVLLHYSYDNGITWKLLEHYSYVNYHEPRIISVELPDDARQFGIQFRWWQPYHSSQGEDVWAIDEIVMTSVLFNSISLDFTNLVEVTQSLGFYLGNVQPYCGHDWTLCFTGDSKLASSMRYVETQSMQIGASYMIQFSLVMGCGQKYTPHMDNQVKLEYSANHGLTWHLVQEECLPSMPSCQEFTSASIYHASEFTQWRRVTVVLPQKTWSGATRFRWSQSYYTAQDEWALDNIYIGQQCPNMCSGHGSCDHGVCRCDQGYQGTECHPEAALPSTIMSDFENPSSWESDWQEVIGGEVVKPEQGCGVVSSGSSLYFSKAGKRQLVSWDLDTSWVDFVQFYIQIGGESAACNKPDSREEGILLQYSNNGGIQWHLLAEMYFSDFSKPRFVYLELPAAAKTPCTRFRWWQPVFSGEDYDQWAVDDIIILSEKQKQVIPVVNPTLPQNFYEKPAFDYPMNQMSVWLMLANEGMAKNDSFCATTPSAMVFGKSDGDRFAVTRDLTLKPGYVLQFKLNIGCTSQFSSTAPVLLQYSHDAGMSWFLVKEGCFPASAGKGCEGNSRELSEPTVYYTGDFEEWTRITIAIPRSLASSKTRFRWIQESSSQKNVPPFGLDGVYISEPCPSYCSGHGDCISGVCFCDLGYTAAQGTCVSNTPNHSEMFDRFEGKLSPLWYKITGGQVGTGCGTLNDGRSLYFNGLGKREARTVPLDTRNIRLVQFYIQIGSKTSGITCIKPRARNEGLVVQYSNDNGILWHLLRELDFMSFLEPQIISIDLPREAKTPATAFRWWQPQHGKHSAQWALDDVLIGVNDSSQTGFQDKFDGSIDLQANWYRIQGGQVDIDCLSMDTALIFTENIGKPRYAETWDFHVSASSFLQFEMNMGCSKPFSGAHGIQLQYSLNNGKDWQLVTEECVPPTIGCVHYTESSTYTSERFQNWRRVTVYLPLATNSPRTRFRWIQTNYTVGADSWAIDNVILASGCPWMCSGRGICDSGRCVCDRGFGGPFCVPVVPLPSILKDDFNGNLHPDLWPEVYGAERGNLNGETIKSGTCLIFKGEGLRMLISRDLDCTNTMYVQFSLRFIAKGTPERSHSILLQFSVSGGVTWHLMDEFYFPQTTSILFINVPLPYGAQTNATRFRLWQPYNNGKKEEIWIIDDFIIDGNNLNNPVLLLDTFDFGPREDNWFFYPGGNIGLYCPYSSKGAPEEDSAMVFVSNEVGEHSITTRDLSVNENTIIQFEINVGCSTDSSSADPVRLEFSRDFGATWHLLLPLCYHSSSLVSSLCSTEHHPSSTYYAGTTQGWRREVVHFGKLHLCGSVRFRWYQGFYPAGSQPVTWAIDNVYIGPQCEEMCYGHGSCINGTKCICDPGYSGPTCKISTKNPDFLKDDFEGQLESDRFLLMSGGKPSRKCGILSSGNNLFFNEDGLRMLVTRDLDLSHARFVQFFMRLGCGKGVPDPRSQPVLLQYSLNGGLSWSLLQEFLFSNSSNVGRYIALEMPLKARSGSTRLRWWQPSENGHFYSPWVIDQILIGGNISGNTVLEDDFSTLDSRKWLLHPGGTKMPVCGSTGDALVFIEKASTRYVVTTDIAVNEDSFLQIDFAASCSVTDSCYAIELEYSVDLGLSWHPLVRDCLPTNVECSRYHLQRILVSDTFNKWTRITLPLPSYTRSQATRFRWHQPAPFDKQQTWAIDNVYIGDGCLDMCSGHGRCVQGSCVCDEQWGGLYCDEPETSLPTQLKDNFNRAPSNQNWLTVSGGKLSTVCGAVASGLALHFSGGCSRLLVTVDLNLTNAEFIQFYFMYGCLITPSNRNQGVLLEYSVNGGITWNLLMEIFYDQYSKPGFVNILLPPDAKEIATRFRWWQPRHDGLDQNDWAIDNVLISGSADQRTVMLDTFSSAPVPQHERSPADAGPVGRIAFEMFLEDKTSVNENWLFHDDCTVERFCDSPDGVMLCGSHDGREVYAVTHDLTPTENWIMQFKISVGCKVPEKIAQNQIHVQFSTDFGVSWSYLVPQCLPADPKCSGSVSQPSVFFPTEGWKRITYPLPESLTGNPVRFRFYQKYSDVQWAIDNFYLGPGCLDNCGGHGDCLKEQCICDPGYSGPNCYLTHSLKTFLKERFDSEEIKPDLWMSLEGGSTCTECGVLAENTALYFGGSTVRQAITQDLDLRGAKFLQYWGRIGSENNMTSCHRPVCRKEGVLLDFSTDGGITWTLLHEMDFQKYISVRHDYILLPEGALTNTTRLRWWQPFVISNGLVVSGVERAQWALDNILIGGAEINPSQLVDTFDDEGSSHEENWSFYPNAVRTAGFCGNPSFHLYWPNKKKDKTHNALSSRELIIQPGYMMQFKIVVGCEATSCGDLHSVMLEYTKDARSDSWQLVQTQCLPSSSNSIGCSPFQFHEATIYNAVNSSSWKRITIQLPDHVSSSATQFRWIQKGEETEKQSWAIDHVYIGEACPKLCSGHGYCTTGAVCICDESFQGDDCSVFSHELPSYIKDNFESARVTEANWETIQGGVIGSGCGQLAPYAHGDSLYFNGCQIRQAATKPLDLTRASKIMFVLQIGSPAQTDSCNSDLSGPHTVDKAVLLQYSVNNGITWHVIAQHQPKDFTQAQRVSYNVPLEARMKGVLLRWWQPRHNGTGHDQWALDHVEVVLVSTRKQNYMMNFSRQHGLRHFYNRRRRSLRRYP

As to CR-50 antibody, the specific binding left, fraction of the control (fraction of specific binding) in data set [1] was determined as 0.33; in data set [2] it was 0.1; in data set [3], 0.25.

B1: recombinant CR-50 epitope fragment of Reelin (residues 230-346) with C-terminal His-tag, from E. coli (other, not shown: small tags and cut ends)
chain: EQCGTIMHGNAVTFCEPYGPRELTTTCLNTTTASVLQFSIGSGSCRFSYSDPSITVSYAKNNTADWIQLEKIRAPSNVSTVIHILYLPEEAKGESVQFQWKQDSLRVGEVYEACWAL
notes: Under physiological conditions it forms a homopolymer of more than 600 kDa (more than 40 molecules of about 15 kDa)
With B1, the binding result in data set [4] and in data set [5] was “binds” in each case.
